Measured values published in patent publication US20170296617A1 (UNIVERSITY OF HOUSTON SYSTEM, published 2017).
No end group written: not given here. TAT = TAT cell-penetrating sequence fused at N-terminus

B1: TATpeptide25 (peptide25 with the TAT sequence fused at its N-terminal end) (peptide)
peptide: {TAT}-ERTYSPSTAVRS
notes: Synthetic peptide added to the cell culture medium

How the values were obtained:
ROCK2 = target: T1, ROCK2 (UniProt O75116 5-554, limits assumed); assay: SPR (BiaCore), protein immobilized on CM-5 chip, peptide as analyte; no ROCK-II sensorgram is drawn
T1 construct: also called ROKa

ROCK1 [1] = target: T2, ROCK1 (UniProt Q13464 1-553, limits assumed); assay: SPR (BiaCore), protein immobilized on CM-5 chip, peptide as analyte; the sheet does not say whether ROCK-I is ROCK1-553 or ROCK1-415
T2 construct: also called Rho-associated kinase 1; p160ROCK

ROCK1 [2] = target: T2, ROCK1; assay: SPR (BiaCore, proteins immobilized on CM-5 chip)

T2 sequence (Q13464 1-553 limits assumed): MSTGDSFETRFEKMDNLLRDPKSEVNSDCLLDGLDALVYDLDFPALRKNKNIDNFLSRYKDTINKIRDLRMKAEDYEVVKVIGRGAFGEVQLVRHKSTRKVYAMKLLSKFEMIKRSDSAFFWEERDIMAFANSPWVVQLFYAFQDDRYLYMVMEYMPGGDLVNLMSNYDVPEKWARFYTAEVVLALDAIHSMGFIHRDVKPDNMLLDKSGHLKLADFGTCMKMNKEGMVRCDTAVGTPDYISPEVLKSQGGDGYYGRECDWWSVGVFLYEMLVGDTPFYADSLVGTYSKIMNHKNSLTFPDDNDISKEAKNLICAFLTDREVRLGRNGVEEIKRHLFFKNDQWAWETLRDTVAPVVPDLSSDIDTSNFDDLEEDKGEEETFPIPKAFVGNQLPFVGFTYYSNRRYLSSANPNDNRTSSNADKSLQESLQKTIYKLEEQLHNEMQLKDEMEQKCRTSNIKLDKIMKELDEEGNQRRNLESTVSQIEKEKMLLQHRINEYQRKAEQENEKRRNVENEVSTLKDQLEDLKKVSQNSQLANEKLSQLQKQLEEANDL
T1 sequence (O75116 5-554 limits assumed): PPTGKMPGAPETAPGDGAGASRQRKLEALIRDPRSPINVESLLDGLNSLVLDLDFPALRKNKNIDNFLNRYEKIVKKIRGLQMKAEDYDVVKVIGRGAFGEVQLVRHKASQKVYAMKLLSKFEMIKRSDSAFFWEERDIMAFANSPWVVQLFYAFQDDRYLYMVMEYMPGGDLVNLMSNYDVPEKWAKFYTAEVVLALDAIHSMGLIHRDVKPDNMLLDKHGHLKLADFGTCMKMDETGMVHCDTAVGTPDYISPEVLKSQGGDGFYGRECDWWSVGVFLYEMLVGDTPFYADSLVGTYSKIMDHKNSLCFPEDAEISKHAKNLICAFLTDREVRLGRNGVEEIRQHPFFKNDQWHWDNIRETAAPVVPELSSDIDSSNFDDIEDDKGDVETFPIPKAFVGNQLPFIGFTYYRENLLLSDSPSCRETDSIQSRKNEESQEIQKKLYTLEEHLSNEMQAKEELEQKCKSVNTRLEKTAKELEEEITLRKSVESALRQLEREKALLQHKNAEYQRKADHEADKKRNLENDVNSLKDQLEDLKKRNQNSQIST

| Binder | Kd (ROCK2) [nM] | Kd (ROCK1 [1]) [nM] | Kd (ROCK1 [2]) [nM] |
| --- | --- | --- | --- |
| B1 | 5150 | 1450 |  |
| ERTYSPSTAVRS (also called PD2w-5; Pep25-4) [peptide25 (ERTYSPSTAVRS)] |  |  | 1500 |
